Reference: patent US20260151494A1 (ARO BIOTHERAPEUTICS, published 2026)
Numbering of substitutions follows the chain as printed.

B1: CD71-binding FN3 domain of SEQ ID NO: 453 (designed binder)
chain: MLPAPKNLVVSRVTEDSARLSWTAQDAAFDSFFIGYLEPQPPGEAIALLVPGSERSYDLTGLKPGTEYNVTIQGVKGGFPSHPLSASFTT
B2: CD71-binding FN3 domain of SEQ ID NO: 454 (designed binder)
chain: B1 chain with Q25P, A47N, L49T, H82Y, S85Q
B3: CD71-binding FN3 domain of SEQ ID NO: 493 (designed binder)
chain: B1 chain with Q25P, A47L, L49A, H82L, S85V, S87H
B4: CD71-binding FN3 domain of SEQ ID NO: 464 (designed binder)
chain: B1 chain with Q25P, A47Q, L49F, H82T, S85V
B5: CD71-binding FN3 domain of SEQ ID NO: 465 (designed binder)
chain: B1 chain with Q25P, A47D, L49Y, H82E, S85W, S87D
B6: CD71-binding FN3 domain of SEQ ID NO: 498 (designed binder)
chain: B1 chain with Q25P, A47I, L49W, H82I, S85I, S87V
B7: CD71-binding FN3 domain of SEQ ID NO: 483 (designed binder)
chain: B1 chain with Q25P, A47T, L49V, H82D, S85V
B8: CD71-binding FN3 domain of SEQ ID NO: 479 (designed binder)
chain: B1 chain with Q25P, A47N, L49W, H82T, S85F, S87G
B9: CD71-binding FN3 domain of SEQ ID NO: 496 (designed binder)
chain: B1 chain with Q25P, A47I, L49W, H82V, S85I, S87Q
B10: CD71-binding FN3 domain of SEQ ID NO: 475 (designed binder)
chain: B1 chain with Q25P, A47T, L49Y, H82I, S87E
B11: CD71-binding FN3 domain of SEQ ID NO: 487 (designed binder)
chain: B1 chain with Q25P, A47G, L49R, H82E, S85I, S87D
B12: CD71-binding FN3 domain of SEQ ID NO: 472 (designed binder)
chain: B1 chain with Q25P, A47E, L49Y, H82L, S85V, S87T
B13: CD71-binding FN3 domain of SEQ ID NO: 485 (designed binder)
chain: B1 chain with Q25P, A47H, L49W, H82L, S85L, S87K
B14: CD71-binding FN3 domain of SEQ ID NO: 457 (designed binder)
chain: B1 chain with Q25P, A47V, H82A, S85V, S87T
B15: CD71-binding FN3 domain of SEQ ID NO: 474 (designed binder)
chain: B1 chain with Q25P, A47G, L49A, H82E, S85I, S87D
B16: CD71-binding FN3 domain of SEQ ID NO: 460 (designed binder)
chain: B1 chain with Q25P, A47S, L49Y, L59Q, H82D, S87R
B17: CD71-binding FN3 domain of SEQ ID NO: 461 (designed binder)
chain: B1 chain with Q25P, A47G, L49F, H82M, A86P, S87I
B18: CD71-binding FN3 domain of SEQ ID NO: 473 (designed binder)
chain: B1 chain with Q25P, A47D, L49W, H82L
B19: CD71-binding FN3 domain of SEQ ID NO: 462 (designed binder)
chain: B1 chain with Q25P, A47H, L49Q, H82V, S85H, S87R
B20: CD71-binding FN3 domain of SEQ ID NO: 467 (designed binder)
chain: B1 chain with Q25P, A47Q, H82D, S85V, S87Y, F88S
B21: CD71-binding FN3 domain of SEQ ID NO: 497 (designed binder)
chain: B1 chain with Q25P, A47T, H82K, S85Y, S87Y
B22: CD71-binding FN3 domain of SEQ ID NO: 491 (designed binder)
chain: B1 chain with Q25P, P42S, A47H, L49I, H82D, S85V
B23: CD71-binding FN3 domain of SEQ ID NO: 490 (designed binder)
chain: B1 chain with Q25P, A47S, L49Q, H82A, S85V, S87N
B24: CD71-binding FN3 domain of SEQ ID NO: 469 (designed binder)
chain: B1 chain with Q25P, A47H, L49Y, H82L, S85V, S87T
B25: CD71-binding FN3 domain of SEQ ID NO: 459 (designed binder)
chain: B1 chain with Q25P, G35R, A47H, L49S, H82M, S85Y, S87I
B26: CD71-binding FN3 domain of SEQ ID NO: 486 (designed binder)
chain: B1 chain with K6E, Q25L, A47S, F79I, P80A, H82E, S87A
B27: CD71-binding FN3 domain of SEQ ID NO: 478 (designed binder)
chain: B1 chain with Q25P, A47H, L49Y, H82V, S85I, S87K
B28: CD71-binding FN3 domain of SEQ ID NO: 481 (designed binder)
chain: B1 chain with Q25P, A47T, L49Y, L59M, H82L, S85Q, S87H
B29: CD71-binding FN3 domain of SEQ ID NO: 494 (designed binder)
chain: B1 chain with A24T, Q25P, A47S, L49Y, H82M, S87I
B30: CD71-binding FN3 domain of SEQ ID NO: 470 (designed binder)
chain: B1 chain with Q25P, A47T, H82M, S87I
B31: CD71-binding FN3 domain of SEQ ID NO: 456 (designed binder)
chain: B1 chain with Q25P, L49Y, S85Q, S87H
B32: CD71-binding FN3 domain of SEQ ID NO: 482 (designed binder)
chain: B1 chain with V9I, Q25P, A47H, L49Q, H82N, S85H, S87E
B33: CD71-binding FN3 domain of SEQ ID NO: 476 (designed binder)
chain: B1 chain with Q25P, A47H, L49Q, H82I, S85I, S87V

Assays:
[1] = target: T1, human CD71 extracellular domain (human, UniProt P02786 89-760, biotinylated); assay: primary ELISA, RLU over HSA
T1 construct: also called hCD71; CD71-ECD

[2] = target: T2, apical domain of human CD71 (human, UniProt P02786 189-383, limits assumed); assay: primary ELISA, RLU over HSA
T2 construct: domain: apical domain; Screen 4 panned on human apical domains, the ELISA text says only 'apical domain'

[3] = target: T1, human CD71 extracellular domain; assay: primary ELISA; also: test concentration or dose not given here
[4] = target: T2, apical domain of human CD71; assay: primary ELISA; also: test concentration or dose not given here

T2 sequence (P02786 189-383 limits assumed): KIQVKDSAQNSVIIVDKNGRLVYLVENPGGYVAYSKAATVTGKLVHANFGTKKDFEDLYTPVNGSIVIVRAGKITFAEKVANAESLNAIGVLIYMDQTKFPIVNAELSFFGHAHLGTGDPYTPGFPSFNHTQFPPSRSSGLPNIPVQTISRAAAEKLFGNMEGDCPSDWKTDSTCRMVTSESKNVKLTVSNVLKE
T1 sequence (P02786 89-760): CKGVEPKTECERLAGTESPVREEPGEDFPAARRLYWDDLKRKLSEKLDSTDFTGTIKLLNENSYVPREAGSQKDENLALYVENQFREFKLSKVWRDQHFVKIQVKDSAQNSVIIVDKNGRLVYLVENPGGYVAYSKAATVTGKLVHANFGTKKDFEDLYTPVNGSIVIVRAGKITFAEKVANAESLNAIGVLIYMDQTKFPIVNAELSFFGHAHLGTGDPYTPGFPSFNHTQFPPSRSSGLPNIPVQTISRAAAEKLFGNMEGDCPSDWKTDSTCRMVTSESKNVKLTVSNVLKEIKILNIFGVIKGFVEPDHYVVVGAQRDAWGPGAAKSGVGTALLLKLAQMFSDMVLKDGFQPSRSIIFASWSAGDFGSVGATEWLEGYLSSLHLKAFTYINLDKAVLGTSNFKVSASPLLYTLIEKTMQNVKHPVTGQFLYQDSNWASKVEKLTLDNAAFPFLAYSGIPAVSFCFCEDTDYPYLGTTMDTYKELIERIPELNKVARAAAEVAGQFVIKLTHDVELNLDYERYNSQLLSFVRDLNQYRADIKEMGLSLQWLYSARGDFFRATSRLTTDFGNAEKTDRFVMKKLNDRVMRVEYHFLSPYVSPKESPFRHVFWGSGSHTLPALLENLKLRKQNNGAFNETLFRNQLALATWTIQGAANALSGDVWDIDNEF

Binder	hCD71:HSA [1]	Apical domain:HSA [2]	RLU [3]	RLU [4]
B1	142	147	4.95e+06 RLU	5.12e+06 RLU
B2	226	227	4.18e+06 RLU	4.2e+06 RLU
B3	190	172	2.75e+06 RLU	2.5e+06 RLU
B4	140	160	4.94e+06 RLU	5.68e+06 RLU
B5	129	138	3.86e+06 RLU	4.15e+06 RLU
B6	113	112	5.7e+06 RLU	5.67e+06 RLU
B7	136	154	3.05e+06 RLU	3.47e+06 RLU
B8	206	373	2.66e+06 RLU	4.83e+06 RLU
B9	43	47	5.27e+06 RLU	5.66e+06 RLU
B10	101	94	3.46e+06 RLU	3.21e+06 RLU
B11	146	220	2.27e+06 RLU	3.43e+06 RLU
B12	162	178	4.52e+06 RLU	4.97e+06 RLU
B13	66	86	2.47e+06 RLU	3.23e+06 RLU
B14	51	53	5.54e+06 RLU	5.78e+06 RLU
B15	312	279	3.04e+06 RLU	2.72e+06 RLU
B16	143	148	2.69e+06 RLU	2.8e+06 RLU
B17	117	166	3.77e+06 RLU	5.35e+06 RLU

Binder	hCD71:HSA [1]	Apical domain:HSA [2]	RLU [3]	RLU [4]
B18	88	91	2.91e+06 RLU	3.03e+06 RLU
B19	76	88	2.83e+06 RLU	3.28e+06 RLU
B20	27	45	1.18e+06 RLU	2e+06 RLU
B21	229	358	2.93e+06 RLU	4.58e+06 RLU
B22	265	288	4.66e+06 RLU	5.07e+06 RLU
B23	403	281	4.15e+06 RLU	2.9e+06 RLU
B24	73	75	5.4e+06 RLU	5.56e+06 RLU
B25	191	199	2.5e+06 RLU	2.61e+06 RLU
B26	297	335	1.75e+06 RLU	1.98e+06 RLU
B27	56	61	5.39e+06 RLU	5.9e+06 RLU
B28	816	803	3.71e+06 RLU	3.65e+06 RLU
B29	356	369	3.2e+06 RLU	3.32e+06 RLU
B30	79	152	2.47e+06 RLU	4.74e+06 RLU
B31	302	289	4.5e+06 RLU	4.31e+06 RLU
B32	247	295	2.23e+06 RLU	2.66e+06 RLU
B33	262	215	4.15e+06 RLU	3.4e+06 RLU
